Patent US7563585B2, “Methods of assaying compounds that modulate IL-4 receptor-mediated IgE synthesis utilizing a thioredoxin-like 32 kDa protein (TXNL)” (Rigel Pharmaceuticals, Inc., priority 2002, dated 2009)

What was measured:
[1] = biological target: T1, human thioredoxin-like 32 kDa protein (hTXNL) (Homo sapiens, UniProt O43396); assay: β-galactosidase yeast two hybrid (YTH) interaction assay; assay type: binding
T1 construct: expressed in transfected cells; prey cDNA from a library of the A5T4 reporter line (derived from BJAB B-cells)
T1 sequence (O43396 1-289): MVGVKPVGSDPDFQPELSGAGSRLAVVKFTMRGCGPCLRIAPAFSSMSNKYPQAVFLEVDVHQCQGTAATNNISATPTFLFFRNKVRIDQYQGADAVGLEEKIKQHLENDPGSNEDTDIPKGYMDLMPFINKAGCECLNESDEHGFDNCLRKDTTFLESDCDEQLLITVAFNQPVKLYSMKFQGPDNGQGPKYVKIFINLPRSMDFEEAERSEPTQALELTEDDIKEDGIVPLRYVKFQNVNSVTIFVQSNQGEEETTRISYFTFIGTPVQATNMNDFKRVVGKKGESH
Method: Potential binding partners for peptide DR15wt were identified in a β-galactosidase yeast two-hybrid (YTH) assay using peptide DR15wt as bait and a cDNA library constructed from the A5T4 reporter cell line as prey. Binding was assessed by β-galactosidase quantification using BetaFluor (Novagen) as a substrate. A negative interaction control (no cDNA fused downstream of the GAL4 activation domain sequence) was also run. A general outline of the YTH assay is illustrated in FIG. 5A. Following clustering, filtering to remove non-specific bait hits (e.g., GFP and BFP), singletons and clusters recognized by 10 or more cDNA baits (based upon historical YTH assays), and prioritization, 10 prey clones were identified as hits.
Potential targets identified in the YTH assay were reconfirmed as generally outlined in FIG. 6. The cDNA clones identified as hits in the YTH assay were purified and rescreened for interaction with the DR15wt (SEQ ID NO:1) peptide in a YTH assay. The hit clones were also screened in a control assay for interaction with the BFP using a vector (pGBKT7) that contained only the BFP and not the DR15 peptide. At this stage, 8 putative target clones remained.
The interaction of DR15wt (SEQ ID NO:1) peptide and its mutants with the clones identified as potential targets for the peptide DR15wt (SEQ ID NO:1) was then quantified in a galactosidase YTH assay. The YTH assay was performed in the manner described above. A general outline of this YTH assay is illustrated in FIG. 5B. For each clone tested, an interaction profile was developed by comparing the β-galactosidase activity of each mutant to that of the wild type peptide as described above.
The interaction of these IOF and ROF mutants with different polypeptides encoded by the putative target clones were quantified using the YTH assay described above. Based on the YTH assay, for each putative target, a subset of the mutants representing each of the above functional categories, when available, were categorized into the following four interaction categories: (1) reduction of interaction (ROI); (2) loss of interaction (LOT); (3) increase of interaction (101); and (4) interactionally neutral (N), by assessing the binding affinity ratio of the mutant peptide and the wild type peptide (β-gal activity of mutant/wild type) to the putative target. For the YTH interaction assay mutants DR15PE (SEQ ID NO:2), DR15QI (SEQ ID NO:3), and DR15YM (SEQ ID NO:4) as well as originally identified DR15wt (SEQ ID NO:1), were used.

[2] = test system: IL-4 induced germline ε transcription (ε promoter reporter in A5T4 cells); assay: Re-infection assay in naïve A5T4 cells (BFP− vs BFP+ populations, FACS of GFP); assay type: cell-based, human; settings: A5T4 reporter line
Method: The ability of peptide DR15wt (SEQ ID NO:1) to inhibit germline ε transcription was confirmed in naïve cells. Briefly, Phoenix cells were transfected with a retroviral vector encoding a BFP-DR15wt (SEQ ID NO:1) peptide fusion as described in WO 99/58663 and WO 97/27213. Naïve A5T4 cells were infected with the resultant virions and grown for 3 days. The infected cells were stimulated with IL-4 (60 U/mL) and, after 3 days, the cells were assessed by FACS for BFP and GFP. […] The BFP fluorescence data corresponding to the BFP^+ and BFP^− populations are provided in Panel A. The GFP fluorescence data corresponding to the BFP^+ and BFP^− populations are presented in Panel B. The reporter ratio for this purpose is determined as the geometric mean of the GFP fluorescence of the BFP^− population divided by the geometric mean of the GFP fluorescence of the BFP^+ population. The reporter ratio for the DR15 in this re-infection assay was 1.69.
A collection of DR15 mutants was generated by replacing double amino acid residues in the sequence of DR15wt (SEQ ID NO:1) with a different amino acid, typically an alanine, as described in copending application Ser. No. 10/095,659. The functional profiles for the mutants derived from DR15wt (SEQ ID NO:1) was obtained by constructing and screening for activity in the A5T4 reporter cell line in the manner described above. […]

[3] = test system: endogenous α promoter (ST486 cells); assay: TAQMAN assay of endogenous germline α promoter transcription in ST486 cells; assay type: cell-based; settings: ST486 cells stimulated with TGF-β 40 ng/ml; average of 3 values; p=0.7797
Method: The assay was similar to that described in the immediately preceding section, except that ST486 cells (ATCC # CRL-1647) engineered to express the tetracycline-regulated transactivator were infected and the infected cells were stimulated with TGF-β (40 ng/ml; Peprotech). The primers and probe, which are specific for the transcription product driven by the ST486 endogenous α promoter, were as follows (the probe was labeled at the 5′-end with Fam and at the 3′-end with Tamra): […]

Row | Sequence | binding to hTXNL in yeast two hybrid interaction assay [1] | functional category based on reporter ratio compared to DR15wt [2] | endogenous α inhibition ratio [3]
1 | AARCYMRMPPQSLADAQIYS (Peptide generated by a combinatorial library) [DR15PE, dual alanine mutant of DR15wt] | found to bind | IOF (An increase of function mutant (IOF) shows a >50% increase in reporter ratio) | 
2 | PERCAARMPPQSLADAQIYS (peptide generated from combinatorial library) [DR15YM, dual alanine mutant of DR15wt] | found to bind |  | 
3 | PERCYMRMPPQSLADAAAYS (peptide generated from combinatorial library) [DR15QI, dual alanine mutant of DR15wt] | found to bind |  | 
4 | PERCYMRMPPQSLADAQIYS (peptide generated from a combinatorial library) [DR15wt, 20-mer peptide from a random retroviral library, expressed as BFP-peptide fusion] | found to bind |  | 0.98
